Experimental data published in patent US20140274782A1, “AFFINITY REAGENTS AND METHODS FOR DETECTION, PURIFICATION, AND PROTEOMIC ANALYSIS OF METHYLATED PROTEINS” (The Board of Trustees of the Leland Stanford Junior …, priority 2013, published 2014).

T1: G9a and GLP (Homo sapiens, UniProt Q96KQ7+Q9H9B1)
T1 sequence (Q96KQ7 2-1210 limits assumed): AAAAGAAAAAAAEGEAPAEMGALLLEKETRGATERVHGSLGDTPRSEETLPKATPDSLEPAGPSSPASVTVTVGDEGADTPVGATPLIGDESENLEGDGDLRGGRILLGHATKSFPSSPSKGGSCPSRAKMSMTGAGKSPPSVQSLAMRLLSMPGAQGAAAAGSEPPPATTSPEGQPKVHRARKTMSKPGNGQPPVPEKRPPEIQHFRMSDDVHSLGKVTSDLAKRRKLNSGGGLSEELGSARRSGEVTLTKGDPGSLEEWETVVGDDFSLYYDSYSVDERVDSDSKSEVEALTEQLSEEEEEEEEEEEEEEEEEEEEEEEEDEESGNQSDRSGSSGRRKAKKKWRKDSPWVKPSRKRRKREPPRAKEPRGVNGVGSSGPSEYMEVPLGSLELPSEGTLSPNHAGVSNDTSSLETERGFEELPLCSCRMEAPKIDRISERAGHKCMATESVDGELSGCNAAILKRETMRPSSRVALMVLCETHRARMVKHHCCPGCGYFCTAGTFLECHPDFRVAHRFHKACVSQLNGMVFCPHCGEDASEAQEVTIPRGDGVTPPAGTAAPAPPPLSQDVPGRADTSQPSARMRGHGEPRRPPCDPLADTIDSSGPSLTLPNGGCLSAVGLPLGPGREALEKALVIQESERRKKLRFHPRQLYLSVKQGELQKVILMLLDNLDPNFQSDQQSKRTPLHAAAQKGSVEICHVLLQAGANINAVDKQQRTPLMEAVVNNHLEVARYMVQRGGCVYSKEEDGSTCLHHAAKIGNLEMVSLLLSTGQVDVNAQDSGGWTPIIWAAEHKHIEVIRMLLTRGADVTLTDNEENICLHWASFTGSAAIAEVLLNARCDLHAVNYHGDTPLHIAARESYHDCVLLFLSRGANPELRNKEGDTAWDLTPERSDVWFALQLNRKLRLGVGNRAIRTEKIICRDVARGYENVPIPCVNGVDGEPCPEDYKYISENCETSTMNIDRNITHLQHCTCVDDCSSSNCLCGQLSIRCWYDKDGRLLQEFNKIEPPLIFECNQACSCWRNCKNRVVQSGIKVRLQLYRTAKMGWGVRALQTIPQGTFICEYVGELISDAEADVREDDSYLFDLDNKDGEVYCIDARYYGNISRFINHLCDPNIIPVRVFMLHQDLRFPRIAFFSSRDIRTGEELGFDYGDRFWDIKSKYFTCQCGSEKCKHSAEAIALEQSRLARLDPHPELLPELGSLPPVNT
T1 sequence (Q9H9B1 2-1298 limits assumed): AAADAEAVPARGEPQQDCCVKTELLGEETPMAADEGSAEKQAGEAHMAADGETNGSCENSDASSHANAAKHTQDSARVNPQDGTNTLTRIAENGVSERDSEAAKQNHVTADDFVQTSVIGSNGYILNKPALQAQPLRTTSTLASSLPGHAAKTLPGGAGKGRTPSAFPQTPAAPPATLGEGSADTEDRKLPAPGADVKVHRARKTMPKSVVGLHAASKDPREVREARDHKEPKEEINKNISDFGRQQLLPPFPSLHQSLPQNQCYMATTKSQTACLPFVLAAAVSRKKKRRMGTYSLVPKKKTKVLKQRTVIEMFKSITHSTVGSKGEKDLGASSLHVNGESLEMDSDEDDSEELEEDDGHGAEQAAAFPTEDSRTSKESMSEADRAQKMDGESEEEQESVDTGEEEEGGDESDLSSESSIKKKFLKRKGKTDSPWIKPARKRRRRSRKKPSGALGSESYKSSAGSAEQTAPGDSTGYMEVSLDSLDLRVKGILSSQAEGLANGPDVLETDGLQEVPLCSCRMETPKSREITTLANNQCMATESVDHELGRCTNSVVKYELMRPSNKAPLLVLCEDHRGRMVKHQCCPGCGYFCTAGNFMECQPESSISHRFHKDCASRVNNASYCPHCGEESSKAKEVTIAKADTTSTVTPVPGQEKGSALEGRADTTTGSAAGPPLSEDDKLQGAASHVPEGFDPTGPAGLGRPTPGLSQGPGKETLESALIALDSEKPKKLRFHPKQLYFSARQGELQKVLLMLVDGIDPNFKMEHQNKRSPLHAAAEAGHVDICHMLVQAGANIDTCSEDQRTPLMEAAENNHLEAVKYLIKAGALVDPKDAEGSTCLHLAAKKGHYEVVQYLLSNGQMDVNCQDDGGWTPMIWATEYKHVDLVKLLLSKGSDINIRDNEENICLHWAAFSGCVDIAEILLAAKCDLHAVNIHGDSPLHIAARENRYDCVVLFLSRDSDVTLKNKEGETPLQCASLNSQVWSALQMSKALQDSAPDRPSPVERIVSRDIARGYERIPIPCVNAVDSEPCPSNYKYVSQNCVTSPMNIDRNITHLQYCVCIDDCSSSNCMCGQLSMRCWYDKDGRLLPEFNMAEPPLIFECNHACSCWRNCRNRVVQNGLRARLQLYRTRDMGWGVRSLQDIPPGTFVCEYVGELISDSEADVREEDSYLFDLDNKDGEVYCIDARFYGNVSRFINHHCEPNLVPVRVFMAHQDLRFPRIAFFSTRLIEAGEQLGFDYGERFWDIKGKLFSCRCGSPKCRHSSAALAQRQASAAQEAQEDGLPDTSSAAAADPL


How the values were obtained:
[1] = target: T1, G9a and GLP; experiment: Triple SILAC pull-down after UNC0638 treatment of 293T cells, DMSO/UNC0638 ratio of protein captured by 3×MBT; format: cell-based; set-up: endogenous in cells; host or cells: HEK 293T; settings: for Relative to UNC0638 UNC Heavy / Relative to UNC0638 UNC Light: SILAC ratio DMSO/UNC0638 of protein pulled down with 3xMBT; for Relative to UNC0638 UNC Heavy: UNC0638 in heavy SILAC media; for Relative to UNC0638 UNC Light: UNC0638 in light SILAC media; for Relative to UNC0638 Average: average of UNC Light and UNC Heavy experiments;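 as to all read-outs here: mass spectrometry (Q-Exactive) SILAC quantitation, DMSO/UNC0638 ratio computed after subtracting 3×MBTD355N mutant pull-down background, only proteins with at least twofold 3×MBT over mutant signal considered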
[2] = test system: 3×MBT domain of L3MBTL1; experiment: Triple SILAC pull-down, 3xMBT/3xMBTD355N ratio (cytoplasmic, nuclear and chromatin fractions of 293T cells); format: binding, human; settings: SILAC ratio, pull-down 3xMBT vs 3xMBTD355N; for 3xMBT/D355N UNC Heavy: experiment with UNC0638 in heavy SILAC media; for 3xMBT/D355N UNC Light: experiment with UNC0638 in light SILAC media;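 as to all read-outs here: proteins quantified with MaxQuant, requiring at least two unique peptides and quantification in both label directions, normalized to the mean of proteins from a digested loading control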

| Molecule | Relative to UNC0638 UNC Heavy [1] | Relative to UNC0638 UNC Light [1] | Relative to UNC0638 Average [1] | 3xMBT/D355N UNC Heavy [2] | 3xMBT/D355N UNC Light [2] |
| --- | --- | --- | --- | --- | --- |
| TXN (protein, UniProt P10599 2-105, looked up) Thioredoxin: VKQIESKTAFQEALDAAGDKLVVVDFSATWCGPCKMIKPFFHSLSEKYSNVIFLEVDVDDCQDVASECEVKCMPTFQFFKKGQKVGEFSGANKEKLEATINELV | 0.14 log base 2 | 0.38 log base 2 | 0.26 log base 2 | 1.75 log base 2 | 1.93 log base 2 |
| POLDIP3 (protein, UniProt Q9BY77 2-421, looked up) Polymerase delta-interacting …: ADISLDELIRKRGAAAKGRLNARPGVGGVRSRVGIQQGLLSQSTRTATFQQRFDARQKIGLSDARLKLGVKDAREKLLQKDARFRIKGKVQDAREMLNSRKQQTTVPQKPRQVADAREKISLKRSSPAAFINPPIGTVTPALKLTKTIQVPQQKAMAPLHPHPAGMRINVVNNHQAKQNLYDLDEDDDGIASVPTKQMKFAASGGFLHHMAGLSSSKLSMSKALPLTKVVQNDAYTAPALPSSIRTKALTNMSRTLVNKEEPPKELPAAEPVLSPLEGTKMTVNNLHPRVTEEDIVELFCVCGALKRARLVHPGVAEVVFVKKDDAITAYKKYNNRCLDGQPMKCNLHMNGNVITSDQPILLRLSDSPSMKKESELPRRVNSASSSNPPAEVDPDTILKALFKSSGASVTTQPTEFKIKL | 0.39 log base 2 | 0.14 log base 2 | 0.26 log base 2 | 2.51 log base 2 | 2.76 log base 2 |

Further lines, with some results ahead:

| Relative to UNC0638 UNC Heavy [1] | Relative to UNC0638 UNC Light [1] | Relative to UNC0638 Average [1] | Molecule | 3xMBT/D355N UNC Heavy [2] | 3xMBT/D355N UNC Light [2] |
| --- | --- | --- | --- | --- | --- |
| 0.28 log base 2 | 0.33 log base 2 | 0.30 log base 2 | DNAJC2 (protein, UniProt Q99543 1-621, looked up) DnaJ homolog subfamily C …: MLLLPSAADGRGTAITHALTSASTLCQVEPVGRWFEAFVKRRNRNASASFQELEDKKELSEESEDEELQLEEFPMLKTLDPKDWKNQDHYAVLGLGHVRYKATQRQIKAAHKAMVLKHHPDKRKAAGEPIKEGDNDYFTCITKAYEMLSDPVKRRAFNSVDPTFDNSVPSKSEAKDNFFEVFTPVFERNSRWSNKKNVPKLGDMNSSFEDVDIFYSFWYNFDSWREFSYLDEEEKEKAECRDERRWIEKQNRATRAQRKKEEMNRIRTLVDNAYSCDPRIKKFKEEEKAKKEAEKKAKAEAKRKEQEAKEKQRQAELEAARLAKEKEEEEVRQQALLAKKEKDIQKKAIKKERQKLRNSCKTWNHFSDNEAERVKMMEEVEKLCDRLELASLQCLNETLTSCTKEVGKAALEKQIEEINEQIRKEKEEAEARMRQASKNTEKSTGGGGNGSKNWSEDDLQLLIKAVNLFPAGTNSRWEVIANYMNIHSSSGVKRTAKDVIGKAKSLQKLDPHQKDDINKKAFDKFKKEHGVVPQADNATPSERFEGPYTDFTPWTTEEQKLLEQALKTYPVNTPERWEKIAEAVPGRTKKDCMKRYKELVEMVKAKKAAQEQVLNASRAKK | 2.18 log base 2 | 3.04 log base 2 |
| 0.45 log base 2 | 0.19 log base 2 | 0.32 log base 2 | CLASP2 (protein, UniProt O75122 1-1294, looked up) CLIP-associating protein 2: MAMGDDKSFDDEESVDGNRPSSAASAFKVPAPKTSGNPANSARKPGSAGGPKVGGASKEGGAGAVDEDDFIKAFTDVPSIQIYSSRELEETLNKIREILSDDKHDWDQRANALKKIRSLLVAGAAQYDCFFQHLRLLDGALKLSAKDLRSQVVREACITVAHLSTVLGNKFDHGAEAIVPTLFNLVPNSAKVMATSGCAAIRFIIRHTHVPRLIPLITSNCTSKSVPVRRRSFEFLDLLLQEWQTHSLERHAAVLVETIKKGIHDADAEARVEARKTYMGLRNHFPGEAETLYNSLEPSYQKSLQTYLKSSGSVASLPQSDRSSSSSQESLNRPFSSKWSTANPSTVAGRVSAGSSKASSLPGSLQRSRSDIDVNAAAGAKAHHAAGQSVRSGRLGAGALNAGSYASLEDTSDKLDGTASEDGRVRAKLSAPLAGMGNAKADSRGRSRTKMVSQSQPGSRSGSPGRVLTTTALSTVSSGVQRVLVNSASAQKRSKIPRSQGCSREASPSRLSVARSSRIPRPSVSQGCSREASRESSRDTSPVRSFQPLASRHHSRSTGALYAPEVYGASGPGYGISQSSRLSSSVSAMRVLNTGSDVEEAVADALKKPARRRYESYGMHSDDDANSDASSACSERSYSSRNGSIPTYMRQTEDVAEVLNRCASSNWSERKEGLLGLQNLLKNQRTLSRVELKRLCEIFTRMFADPHGKRVFSMFLETLVDFIQVHKDDLQDWLFVLLTQLLKKMGADLLGSVQAKVQKALDVTRESFPNDLQFNILMRFTVDQTQTPSLKVKVAILKYIETLAKQMDPGDFINSSETRLAVSRVITWTTEPKSSDVRKAAQSVLISLFELNTPEFTMLLGALPKTFQDGATKLLHNHLRNTGNGTQSSMGSPLTRPTPRSPANWSSPLTSPTNTSQNTLSPSAFDYDTENMNSEDIYSSLRGVTEAIQNFSFRSQEDMNEPLKRDSKKDDGDSMCGGPGMSDPRAGGDATDSSQTALDNKASLLHSMPTHSSPRSRDYNPYNYSDSISPFNKSALKEAMFDDDADQFPDDLSLDHSDLVAELLKELSNHNERVEERKIALYELMKLTQEESFSVWDEHFKTILLLLLETLGDKEPTIRALALKVLREILRHQPARFKNYAELTVMKTLEAHKDPHKEVVRSAEEAASVLATSISPEQCIKVLCPIIQTADYPINLAAIKMQTKVIERVSKETLNLLLPEIMPGLIQGYDNSESSVRKACVFCLVAVHAVIGDELKPHLSQLTGSKMKLLNLYIKRAQTGSGGADPTTDVSGQS | 2.43 log base 2 | 2.10 log base 2 |
